The record followed here is the supplement of paper PMC10567573.

The labels stand for the following.
B1: GLT8D2 (parent)
chain: QEAKLLHWNGRHKPWDFPSVHNDL
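Note: lentivirally expressed fusions sorted by FACS into six bins by GFP to DsRed ratio, PSI derived from sequencing read proportions per bin multiplied by bin number.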

This data set covers variants of B1. In words: protein stability index of a GFP-peptide fusion (GPS, HEK-293T) (PSI 1-6); higher = more stable. The following applies: c terminus: a fixed tail appended.
As to QEAKLLHWNGRHKAWDFPSVHNDL [P14A], the protein stability index is 2.62.
Turning to QEAKLLHWNGRHKEWDFPSVHNDL [P14E], the protein stability index was 3.16.
On to QEAKLLHWNGRHKCWDFPSVHNDL [P14C], for which the protein stability index was 2.06.
For QEAKLLHWNGRHKDWDFPSVHNDL [P14D], the protein stability index was 3.29.
In the case of QEAMLLHWNGRHKPWDFPSVHNDL [K4M] it was 2.64.
Then QEAPLLHWNGRHKPWDFPSVHNDL [K4P], with 2.83; and QEAILLHWNGRHKPWDFPSVHNDL [K4I], with 2.47.
Turning to QEATLLHWNGRHKPWDFPSVHNDL [K4T], the protein stability index stood at 2.92.
Take QEAYLLHWNGRHKPWDFPSVHNDL [K4Y]: the protein stability index was 2.13.
Consider QEAVLLHWNGRHKPWDFPSVHNDL [K4V], for which the protein stability index is 2.34.
As to QEASLLHWNGRHKPWDFPSVHNDL [K4S], the protein stability index is 2.99.
Regarding QEARLLHWNGRHKPWDFPSVHNDL [K4R], the protein stability index is 2.87.
With QEALLLHWNGRHKPWDFPSVHNDL [K4L], the protein stability index worked out at 2.56.
Regarding QEAQLLHWNGRHKPWDFPSVHNDL [K4Q], the protein stability index came out at 2.5.
For the variant QEAHLLHWNGRHKPWDFPSVHNDL [K4H], the protein stability index was 2.84.
As for QEAWLLHWNGRHKPWDFPSVHNDL [K4W], the protein stability index was 2.7.
Take QEANLLHWNGRHKPWDFPSVHNDL [K4N]: the protein stability index was 2.68.
In the case of QEAKLLHWNGRHCPWDFPSVHNDL [K13C] it was 2.29.
Then QEAKLLHWNGRHAPWDFPSVHNDL [K13A], with 2.85; and QEAKLLHWNGRHEPWDFPSVHNDL [K13E], with 2.92.
For the variant QEAKLLHWNGRHWPWDFPSVHNDL [K13W], the protein stability index was found to be 2.29.
Then QEAKLLHWNGRHPPWDFPSVHNDL [K13P], with 3.04; and QEAKLLHWNGRHDPWDFPSVHNDL [K13D], with 3.73.
In the case of QEAKLLHWNGRHRPWDFPSVHNDL [K13R] it was 2.86; in that of QEAKLLHWNGRHMPWDFPSVHNDL [K13M], 2.94; in that of QEAKLLHWNGRHIPWDFPSVHNDL [K13I], 2.35.
In the case of QEAKLLHWNGRHFPWDFPSVHNDL [K13F] it was 2.69; in that of QEAKLLHWNGRHGPWDFPSVHNDL [K13G], 2.62.
On to QEAKLLHWNGRHTPWDFPSVHNDL [K13T], for which the protein stability index was found to be 2.84.
QEAKLLHWNGRHLPWDFPSVHNDL [K13L]: the protein stability index was 2.26.
Regarding QEAKLLHWNGRHQPWDFPSVHNDL [K13Q], the protein stability index stood at 2.7.
Then QEAKLLHWNGRHSPWDFPSVHNDL [K13S], with 2.27; and QEAKLLHWNGRHYPWDFPSVHNDL [K13Y], with 2.43.
Then QEAKLLHWNGRHNPWDFPSVHNDL [K13N], with 2.77; and QEAKLLHWNGRHHPWDFPSVHNDL [K13H], with 2.47.
In the case of QEAKLLHWNGRHVPWDFPSVHNDL [K13V] it was 2.1; in that of QEAKRLHWNGRHKPWDFPSVHNDL [L5R], 2.92.
With QEAKKLHWNGRHKPWDFPSVHNDL [L5K], the protein stability index amounted to 3.14.
In the case of QEAKDLHWNGRHKPWDFPSVHNDL [L5D], the protein stability index is 3.3.
With QEAKNLHWNGRHKPWDFPSVHNDL [L5N], the protein stability index was 2.67.
With QEAKTLHWNGRHKPWDFPSVHNDL [L5T], the protein stability index was found to be 2.81.
For QEAKALHWNGRHKPWDFPSVHNDL [L5A], the protein stability index came to 3.04.
On to QEAKPLHWNGRHKPWDFPSVHNDL [L5P], for which the protein stability index turned out to be 3.05.
As for QEAKILHWNGRHKPWDFPSVHNDL [L5I], the protein stability index turned out to be 2.73.
Regarding QEAKSLHWNGRHKPWDFPSVHNDL [L5S], the protein stability index was 3.27.
Take QEAKCLHWNGRHKPWDFPSVHNDL [L5C]: the protein stability index is 2.77.
For the variant QEAKFLHWNGRHKPWDFPSVHNDL [L5F], the protein stability index is 2.51.
Then QEAKYLHWNGRHKPWDFPSVHNDL [L5Y], with 2.45.
In the case of QEAKHLHWNGRHKPWDFPSVHNDL [L5H], the protein stability index turned out to be 2.67.
Then QEAKQLHWNGRHKPWDFPSVHNDL [L5Q], with 2.83.
As for QEAKELHWNGRHKPWDFPSVHNDL [L5E], the protein stability index turned out to be 3.33.
Consider QEAKVLHWNGRHKPWDFPSVHNDL [L5V], for which the protein stability index amounted to 2.58.
Consider QEAKGLHWNGRHKPWDFPSVHNDL [L5G], for which the protein stability index stood at 3.26.
On to QEAKMLHWNGRHKPWDFPSVHNDL [L5M], for which the protein stability index turned out to be 2.94.
Consider QEAKWLHWNGRHKPWDFPSVHNDL [L5W], for which the protein stability index was 2.59.
QEAKLLHWNRRHKPWDFPSVHNDL [G10R]: the protein stability index is 2.79.
With QEAKLLHWNTRHKPWDFPSVHNDL [G10T], the protein stability index was 2.49.
For the variant QEAKLLHWNQRHKPWDFPSVHNDL [G10Q], the protein stability index is 2.7.
For the variant QEAKLLHWNMRHKPWDFPSVHNDL [G10M], the protein stability index turned out to be 2.53.
Take QEAKLLHWNSRHKPWDFPSVHNDL [G10S]: the protein stability index was determined as 2.69.
As to QEAKLLHWNIRHKPWDFPSVHNDL [G10I], the protein stability index came out at 2.48.
Take QEAKLLHWNLRHKPWDFPSVHNDL [G10L]: the protein stability index is 2.42.
In the case of QEAKLLHWNKRHKPWDFPSVHNDL [G10K] it was 2.48; in that of QEAKLLHWNHRHKPWDFPSVHNDL [G10H], 2.48.
With QEAKLLHWNVRHKPWDFPSVHNDL [G10V], the protein stability index is 2.15.
Regarding QEAKLLHWNARHKPWDFPSVHNDL [G10A], the protein stability index was determined as 2.75.
As to QEAKLLHWNPRHKPWDFPSVHNDL [G10P], the protein stability index was 2.69.
Regarding QEAKLLHWNERHKPWDFPSVHNDL [G10E], the protein stability index was found to be 2.8.
In the case of QEAKLLHWNYRHKPWDFPSVHNDL [G10Y], the protein stability index was found to be 2.9.
On to QEAKLLHWNNRHKPWDFPSVHNDL [G10N], for which the protein stability index is 2.8.
For QEAKLLHWNDRHKPWDFPSVHNDL [G10D], the protein stability index stood at 2.46.
Then QEAKLLHWNWRHKPWDFPSVHNDL [G10W], with 2.5; and QEAKLLHWNFRHKPWDFPSVHNDL [G10F], with 2.37; and QEAKLLHWNCRHKPWDFPSVHNDL [G10C], with 1.49.
On to QEAKLLHNNGRHKPWDFPSVHNDL [W8N], for which the protein stability index turned out to be 3.46.
As to QEAKLLHPNGRHKPWDFPSVHNDL [W8P], the protein stability index turned out to be 2.63.
For the variant QEAKLLHMNGRHKPWDFPSVHNDL [W8M], the protein stability index was found to be 2.56.
On to QEAKLLHKNGRHKPWDFPSVHNDL [W8K], for which the protein stability index was found to be 2.69.
For the variant QEAKLLHLNGRHKPWDFPSVHNDL [W8L], the protein stability index came out at 3.24.
Then QEAKLLHFNGRHKPWDFPSVHNDL [W8F], with 2.62; and QEAKLLHTNGRHKPWDFPSVHNDL [W8T], with 3.23; and QEAKLLHYNGRHKPWDFPSVHNDL [W8Y], with 2.42.
Take QEAKLLHRNGRHKPWDFPSVHNDL [W8R]: the protein stability index is 3.01.
In the case of QEAKLLHCNGRHKPWDFPSVHNDL [W8C] it was 3.2.
On to QEAKLLHHNGRHKPWDFPSVHNDL [W8H], for which the protein stability index stood at 2.85.
Then QEAKLLHGNGRHKPWDFPSVHNDL [W8G], with 3.6; and QEAKLLHENGRHKPWDFPSVHNDL [W8E], with 3.47; and QEAKLLHQNGRHKPWDFPSVHNDL [W8Q], with 3.71.
Take QEAKLLHANGRHKPWDFPSVHNDL [W8A]: the protein stability index stood at 3.39.
As for QEAKLLHSNGRHKPWDFPSVHNDL [W8S], the protein stability index came out at 3.47.
For QEAKLLHINGRHKPWDFPSVHNDL [W8I], the protein stability index was 2.9.
Consider QEAKLLHVNGRHKPWDFPSVHNDL [W8V], for which the protein stability index amounted to 3.1.
As to QEAKLLHDNGRHKPWDFPSVHNDL [W8D], the protein stability index worked out at 3.5.
For QEAKLLHWQGRHKPWDFPSVHNDL [N9Q], the protein stability index is 2.76.
